Assay results reported in US20220089730A1 (published 2022).

Experiments:
[1] = biological target: T1, PSMA (Prostate-Specific Membrane Antigen), glutamate carboxypeptidase 2 (UniProt Q04609 1-750); experiment: FACS; LNCaP-AR cells
[2] = biological target: T1, PSMA (Prostate-Specific Membrane …); experiment: FACS; table prints γ2 EH2, curve legend prints γ1 EH1

B1: IAB2M γ2 EH2 (other)
chain: DIVMTQSPSSLSASVGDRVTITCKASQDVGTAVDWYQQKPGKAPKLLIYWASTRHTGVPDRFTGSGSGTDFTLTISSLQPEDFADYFCQQYNSYPLTFGGGTKLEIKGSTSGGGSGGGSGGGGSSEVQLVQSGAEVKKPGASVKISCKTSGYTFTEYTIHWVKQASGKGLEWIGNINPNNGGTTYNQKFEDRATLTVDKSTSTAYMELSSLRSEDTAVYYCAAGWNFDYWGQGTTVTVSSERKSCVECPPCPGGGSSGGGSGGQPREPQVYTLPPSREEMTKNQVSLTCLVKGFYPSDIAVEWESNGQPENNYKTTPPMLDSDGSFFLYSKLTVDKSRWQQGNVFSCSVMHEALHNHYTQKSLSLSPGK
EC50 [1]: 0.05 nM
EC50 [2]: 0.176 nM
